Experiments:
REF6 ZnF1-4 = target: T1, REF6 ZnF1-4 (Arabidopsis thaliana, UniProt Q9STM3 1239-1360); assay: ITC; 20 uM ZnCl2; ITC: 20 mM Tris-HCl pH 7.5, 150 mM NaCl, 20 uM ZnCl2, 25 C; EMSA: 25 mM Tris-HCl pH 8.0, 100 mM NaCl, 2.5 mM MgCl2, 0.1% CA-630, 10% glycerol, 1 uM ZnSO4, 1 mM; details: protein: recombinant; tags: GST removed by PreScission; blunt
T1 sequence: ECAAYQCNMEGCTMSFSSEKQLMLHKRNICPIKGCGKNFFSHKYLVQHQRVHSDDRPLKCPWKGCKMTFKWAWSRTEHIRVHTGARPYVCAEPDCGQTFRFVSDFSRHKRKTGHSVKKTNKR

GST-REF6C (ZnF1-4) = target: T2, GST-REF6C (ZnF1-4) (Arabidopsis thaliana, UniProt Q9STM3 1239-1360); assay: EMSA; 1 uM ZnSO4; ITC: 20 mM Tris-HCl pH 7.5, 150 mM NaCl, 20 uM ZnCl2, 25 C; EMSA: 25 mM Tris-HCl pH 8.0, 100 mM NaCl, 2.5 mM MgCl2, 0.1% CA-630, 10% glycerol, 1 uM ZnSO4, 1 mM; details: protein: recombinant; tags: N-terminal GST (pGEX-6P-1); label: 5'-32P; blunt
T2 sequence: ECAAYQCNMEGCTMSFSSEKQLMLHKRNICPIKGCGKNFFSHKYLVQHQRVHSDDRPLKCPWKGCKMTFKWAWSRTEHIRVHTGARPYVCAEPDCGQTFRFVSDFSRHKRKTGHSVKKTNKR

B1: NAC004P 12-mer (dsDNA)
DNA 1: TTCTCTGTTTTG
DNA 2: CAAAACAGAGAA
- Kd (REF6 ZnF1-4): 0.0735 ± 0.007 µM

B2: NAC004P_5mC1 (dsDNA)
DNA 1: TTCTCTGTTTTG
DNA 2: CAAAACAGAGAA
modifications: 5mC at top strand position 3
- Kd (REF6 ZnF1-4): 0.0657 ± 0.0049 µM

B3: NAC004P_5mC3 (dsDNA)
DNA 1: TTCTCTGTTTTG
DNA 2: CAAAACAGAGAA
modifications: 5mC at top strand position 5
- Kd (REF6 ZnF1-4): 0.11 ± 0.0038 µM

B4: NAC004 50-bp probe (dsDNA)
DNA 1: GGGAGAATCTCAAACTTTCTCTGTTTTGTCTTTAGAAACTTTGAAATATC
DNA 2: GATATTTCAAAGTTTCTAAAGACAAAACAGAGAAAGTTTGAGATTCTCCC
- binding result (GST-REF6C (ZnF1-4)): binds

From publication PMC6497721, “DNA methylation repels targeting of Arabidopsis REF6”
